According to patent US20100144847A1:

Molecular target: tropomyosin
Assay: cell-based or functional assay

With GFP-CKIIα (from UniProt Q60737 1-391) as the substance, how does the colony formation inhibition assay, A9 cells under G418 selection read?
Its colony formation inhibition assay, A9 cells under G418 selection is greater than 2000 colonies.
